{"source": "paper doi:10.1101/2025.02.04.636439", "about": "(bioRxiv, 2025)", "binders": {"B1": {"name": "SufEMtb (Rv3284), SufE-like protein of Mycobacterium tuberculosis (natural protein)", "chain": "MTAPASLPAPLAEVVSDFAEVQGQDKLRLLLEFANELPALPSHLAESAMEPVPECQSPLFLHVDASDPNRVRLHFSAPAEAPTTRGFASILAAGLDEQPAADILAVPEDFYTELGLAALISPLRLRGMSAMLARIKRRLREAD"}}, "molecular_target": "T1, Mycobacterium tuberculosis thiosulfate-sulfurtransferase SseA (Mycobacterium tuberculosis, UniProt P9WHF7 1-297)", "T1 sequence": "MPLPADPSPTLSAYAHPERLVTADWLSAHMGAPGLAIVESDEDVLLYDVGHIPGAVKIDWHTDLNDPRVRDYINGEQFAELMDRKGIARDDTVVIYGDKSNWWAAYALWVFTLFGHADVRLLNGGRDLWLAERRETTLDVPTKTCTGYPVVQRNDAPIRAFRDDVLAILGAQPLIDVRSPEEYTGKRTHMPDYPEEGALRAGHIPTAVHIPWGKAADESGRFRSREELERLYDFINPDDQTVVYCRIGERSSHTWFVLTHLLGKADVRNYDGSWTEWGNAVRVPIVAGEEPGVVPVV", "test": "ITC"}
{"binder": "B1", "values": [{"measurement": "Kd", "value": 3.3, "unit": "µM"}, {"measurement": "dH", "value": -11.6, "unit": "kcal/mol"}, {"measurement": "stoichiometry N", "value": 1}]}
